Measured values: the DeepSol protein solubility set

Test: soluble on expression in E. coli; label from the status in PepcDB or PDB records

| Sequence | soluble on expression in E. coli |
| --- | --- |
| MSLTKTEGKTASAAVKDILLSNPDGLREVIRTVMQEVLEAEMDEALGAAKGERTPERLGYRSGHYGRTLITRVGKLELRVPQDRSGHFSTELFERYQRSERALVATLAEMYVQGVSTRKVKAITEELCGHAFSASSISAINKRLDESLKAFAERSLQEPFAYLILDARYEKVREAGVVMSQAVLIAVGIDWDGRRQILSVEMAGRESRCAWKNFLVRLKGRGLKGVELVVSDDHAGLVAAIGEVIPEAAWQRCYVHFLRNALDHLPRKHGDDCLQELRWLYDRRDLDEAKADLAAWLGKWSVRYPRLTSWVEETIEQTLTFFRLPRQHHKHLKSTNMLERLNEEIRRRTYVVRIFPNTESCLRLVRALAVETHENWMEANRYINMDDLREHKKLALRQAAEGHHHHHH | soluble |
| MKVDLFDFHLPEELIAQTPLPDRAASRLMVLDKRTGAIRHETFRNIISYLNPGDCLVLNDTRVMPARLYGEKEETGGTVEVLLLKQLDGDRWETLVKPGKRVKPGTKLTFGGGKLEAVCLDTLEHGGRVLEFSYDGLFYEVLAELGEMPLPPYIKEKLDDPERYQTVYAREIGSAAAPTAGLHFTEELLDAIREKGVHIVFITLHVGLGTFRPVQVDEVEKHDMHAEFYQMSEETAETLNRVREQGGRIIAVGTTSTRTLETIAGKHNGRFVAESGWTDIFIYPGYEFKGIDGLVTNFHLPKSTLIMLVSALAGRENILHAYQVAVKERYRFFSFGDAMLII | not soluble |
| MGSDKIHHHHHHMALDGYTDQTMSRQAMRAELLDAETELRLAYAWRDQRDERALHRLITAYMRLAISMASKYRRYGAPMNDLIQEASLGLMKAADKFDPDRGVRFSTYAVWWIKASIQDYVMRNWSLVRTGSTSSQKALFFNMRRVQARLEREASQRGEALDAHQLREMVAHDVGVPLSDVEMMEGRLSGSDFSLNATQSADDEGREWIDALEDDSAQAAEVVEGSLDAARLRGWLVSAMQQLNARERFIVTERKLRDVPRTLESLGEELKLSKERVRQLEAAAFAKMRRSLEAQSREVHHFLL | not soluble |
| PDLIYYRNADGVFSGCNRAMEELTGKKEHQLVGLSPWDVYSKEIAQPIVDTDQKVFSDNQAITYEQWLEYPDGRKHYFELRKVPFYSKD | not soluble |
| MGSDKIHHHHHHMRGSAVARDLTDDKAMVHGALSMLARGGAVDQAYAPDAVAEIAHPYGTCTGADITRFYGDLHRALPDANWRPEIFFAGHNHPDERMEGPRVAAQVGSFGHWQGTFTQPLLGIEPTGGVVHLRMCEVHHLNAAGQIAQSWILPDFLDLMDQAGQFPLPPMNGARGLWPGPRGGNGVRMGPPDVAGGNASMAQVLDMHNALNTHVGADVSGLTMAHWDPNFMYYAAAGIGICRGVEGFRRNHQIPFREAVPDRYSKGHFVRIADGRFALTGGRLYATHTGTYLGIPATGRQVHIDVMDFYHFHDQGLICQNWLPFDILKTAHQMGVDLLPALPS | not soluble |
| MLTVDLSGKKALVMGVTNQRSLGFAIAAKLKEAGAEVALSYQAERLRPEAEKLAEALGGALLFRADVTQDEELDALFAGVKEAFGGLDYLVHAIAFAPREAMEGRYIDTRRQDWLLALEVSAYSLVAVARRAEPLLREGGGIVTLTYYASEKVVPKYNVMAIAKAALEASVRYLAYELGPKGVRVNAISAGPVRTVAARSIPGFTKMYDRVAQTAPLRRNITQEEVGNLGLFLLSPLASGITGEVVYVDAGYHIMGMELEG | soluble |
| MEGWQRAFVLHSRPWSETSLMLDVFTEESGRVRLVAKGARSKRSTLKGALQPFTPLLLRFGGRGEVKTLRSAEAVSLALPLSGITLYSGLYINELLSRVLEYETRFSELFFDYLHCIQSLAGVTGTPEPALRRFELALLGHLGYGVNFTHCAGSGEPVDDTMTYRYREEKGFIASVVIDNKTFTGRQLKALNAREFPDADTLRAAKRFTRMALKPYLGGKPLKSRELFRQFMPKRTVKTHYE | soluble |
| MGSDKIHHHHHHMELYRDPSQPIEVRVRDLLSRMTLEEKVAQLGSVWGYELIDERGKFSREKAKELLKNGIGQITRPGGSTNLEPQEAAELVNEIQRFLVEETRLGIPAMIHEECLTGYMGLGGTNFPQAIAMASTWDPDLIEKMTTAVREDMRKIGAHQGLAPVLDVARDPRWGRTEETFGESPYLVARMGVSYVKGLQGEDIKKGVVATVKHFAGYSASEGGKNWAPTNIPEREFKEVFLFPFEAAVKEANVLSVMNSYSEIDGVPCAANRKLLTDILRKDWGFEGIVVSDYFAVKVLEDYHRIARDKSEAARLALEAGIDVELPKTECYQYLKDLVEKGIISEALIDEAVTRVLRLKFMLGLFENPYVEVEKAKIESHRDIALEIARKSIILLKNDGILPLQKNKKVALIGPNAGEVRNLLGDYMYLAHIRALLDNIDDVFGNPQIPRENYERLKKSIEEHMKSIPSVLDAFKEEGIEFEYAKGCEVTGEDRSGFEEAIEIAKKSDVAIVVVGDKSGLTLDCTTGESRDMANLKLPGVQEELVLEVAKTGKPVVLVLITGRPYSLKNVVDKVNAILQVWLPGEAGGRAIVDIIYGKVNPSGKLPISFPRSAGQIPVFHYVKPSGGRSHWHGDYVDESTKPLFPFGHGLSYTKFEYSNLRIEPKEVPPAGEVVIKVDVENIGDRDGDEVVQLYIGREFASVTRPVKELKGFKRVSLKAKEKKTVVFRLHMDVLAYYNRDMKLVVEPGEFKVMVGSSSEDIRLTGSFSVVGEKREVVGMRKFFTEACEE | not soluble |
| MGSDKIHHHHHHMKNPNTVISSDYGPIIINLNDNAIGRQISQYGYWATDDINIINTLVNVQLDKFGQIMFYDVGANIGTHSLAIAKTHPDTVAIRAFEAQRQVFNMLCGTMAINGLSNVHCHHNAISEKIGDFIDIPIPDYNSANNFGSLELIPPKNSDNQGIIHSGKMESVKTLSIDSFNEKVDFIKMDIEGMEDKALLGAINTIEHHRPILFLEILKTDVNFVMTFLRERGYLGFQKSFDLIAIPIEYQLQVNGTNRVF | not soluble |
| MGSDKIHHHHHHMSKVIITCAVTGAIHTPSMSRYLPVTPEEIIEASVGAAEAGAAIIHLHARDPVTGKPDQSPDAFGRFLPQIKARTDAVLNITSGGSPYMTIEERIQPSMRFAPEVASLNMGSMNFALFPMLARFKEFKHAWEREALEASRDLIFRNTFKDIEYALAQCAANDTRFEFECYDVGHLYNLAHFVERGLVKAPFFVQTVFGILGGIGTHPEDVSHMKRTADRLFGNDYRWSVLGAGKDQLRLAGMSASMGGNVRVGLEDSLWLGRGTLAESNAAQVRQARQIIEGLGLEIASPNEAREILQLKGIEKVKF | not soluble |
| MVLTGVTSKAIRKGDAEPPLSKGSFRVYNMRFCPWAERAMLYVAAKGIEAEVVNLNVTDKLEWYWTKHYQGKAPAVEHNGKVVIESGFIPEYLDDAFPETRILPTDPYEKVQQKLLADRLTAVAHAVPLLFAVMRDRTLKDEKQRKVFEVLKQAENLLANDFYAGSQPGYPDYLSFPFFEKIWWSASLDGVVDLPTIEFPGEEEYPKLTKWFQKMISSDVVQSVTQSLEHGAAFMNAYATHQELNYDLGL | not soluble |
| MISPNHLILLFCVNCAFLVASDATPKRSPLGTMRFGKRAIADEMTFEEDGYYPSNVMWKRSTVDSSEPVIRDQRTPLGTMRFGKRSAEPFGTMRFGKRNPENDTPFGTMRFGKRASEDALFGTMRFGKREDGNAPFGTMKFGKREAEEPLGTMRFGKRSADDSAPFGTMRFGKRNPLGTMRFGK | not soluble |
| MTSPDEHSPEKKDSENEVVPAGPKQKAKCLEKETKSPPKPSDLSKAERKEKNNKTARRDVKSSRGNVKTMKPSVVKVEERSSRSKKSIREGKLKNFSLPKDEPEITALQLDAELTKSARLMEEYKIALEQIITTLVSMMRRGNGTVDMENIVSDKGQTAAEKLNKEVQLTQNYWKTDTKLQPAMNDAIAKNTVVLAAAERNLQTQGPQHLKRVKKFLYGQYPKYVDMKRDLLKIVKQQKPEAQSVRDESAQAISKFIKEKYVNAKIYASRRNSKCFRRVELFPSYIRFYLASNR | soluble |
| MGSDKIHHHHHHMPTDHSFQIKPSQAAPLTSQQLYRKCDLKELSTDCQSTAELTPLDDIVGQERAQQAVEFAMGIKEKGYNIYAIGQNGLGKRTMMLRYLNRHEPSEHSLYDWCYVVNFDDTRSPKVLKLAAGSGLEFKKAIEKLMLKLVKALPLAFDNEMYYARAEKLKSQLAQKQEAALTELSEEAKQKGISLSLTLQGDYQMIALNGEEPHDEYSFTALTETERNQFESNINGLEVKLRNIIRQNTEWEEEFSDTQQEHDEQVAKDVLIHFFKPLKDKYKHQPEVRAFLTGMQADILDNLDIFLEESEEQLALAYASLEKKMPRRYQVNVLVCQGAQKFPIVVEESPSYHSLFGYVENATFRGTVFTDFSLIRSGSLHKANGGVLLMDAVKVLERPYVWDGLKRALRSRKLDLSSLEREVSLSGTISLAPEPIPLDVKIILFGDHETYQLYNTMIQILVNYLELPLILKM | not soluble |
| MIKTGELKYIEEKIERREDLDEDDIVYMYDEADVNDLGKLARSITDKISGKRVSFVSNIILNYTNICNVRCKFCAFYRKSGEYDAYTMTPDGVIDEIRKYYPYGIRQILIQGGVNPNLDLDYYLTVFRKIRENFTEAGINGLSAAEINFISKKAHLTYEETILKLKEAGLETIPGAGAEILDEDVRVKLGRPRGSGRQWLEIMETAHRLGVKTTATMVYGHIESSMDKARHLISIRNLQKKYHGFLSFTPWNMEPDNTELQKEGILKYRAGAEDVIRNIAISRIVFNYDLPIIQSSWLTNGVEMGQLAILYGANDWGGTIYDEKVIPATGKRVGNLRKEIIIRSIKDLGMVPVERDNLYREIAVYE | not soluble |
| SNNWVVSGSLTVSGNPLLANDPHLSLTAPGIWLPIVISSPSYSLAGVTIPGVPLVVIGRNSHVAWGFTNVGSDFTDFYRYQWVDENRYFYKGRIFGVEKSSIEAYVWDPLARSYRVQEISVARTIHGPVIEWQGEKFAVSYTSARPTFEMIFLWLLNKASSVRDALSAQRYFYGPPQNMVVADSAGNIAYSPVGAYPERATLPTIETGYGPIVNTGFLPFDGSAGEGEWRGFKPYSSLPVLFNPPQGFVATANSKPFEDGCWDGLGWDYADRFRTERIYTLLQERSAEEPLDAGDMRDIQLDVEDLGLKTLVSLMVRVASGDGGHVLERYMDMLAEWAENPQMNVDDYKPTLALLASWYFARDFWESLYGSEEHWRFIKLEYAEKALKAYLRGEDWVFNYF | not soluble |
| MNANLNMDVIRSALLAGEVDDAYKVIFNARKKLELYKSTTGDSRYDPYYEFISILDDVVRGRRSWKDLKAYIDGNMDALSKFIDPDFLRSFPYYLFFSIDRYNVRFPYFDGKRCDDR | not soluble |
| MGSDKIHHHHHHMKIVAIDTSTKQLSVALSDGQQILAEASYVTSLNHATKLMPLLERMMQEVNWSPRDLTRIVIADGPGSYTGLRIGATTAKTLAYTLGIDLVPVSTLELMAASAGSTGRIVAIQDARRGTGFVGFYEEGQLVGEEQHTVIADFVKTLPTDTKITGDTDKFTTELQSFTIVDPAFRAPRAGVLALLGAKREPVETHAFEPRYLRLAEAEAKWIEAQRHD | not soluble |
| MTGRESNRIKDAEKKRVLDSTARQRRARKALEALEQDNYHDDPHADLVMSKKLPKFQDSLKTGKEKKGKRKGAEYFLVKYRKNFQQLLEEDKDKQPNYESAAAPAPQKPLRHFCAVCGNFSLYSCTACGTRYCCVRCLQTHQDTRCLKWTALEHHHHHH | not soluble |
| MGSDKIHHHHHHCSDNDSDLTIYIPDAGTAVKANFYIEDEPYVQTFNVAVTPETYPQLTEYGLPNDAVVHLQADPGKVDEYNAKNGTEYELLPEAAYDLTEEVLVKAGTPKSEEAVITVHAKGNIEAFKEYLLPVSITSVEGAVADHCCQTIYFIFRGSMDASNMELLDRTGWEALSASSEEPKEGDWGHSGLKEACLDGDLNTFWGTDWSTQHPQPPHWIVIDLKKTTHIQGFACQAREEGYDGPKEVTVEVSDDNATWTVAAKFKDIPAQGEFRSFLPAAVDGRYLKVTITAVNGGPHVTISELNLF | not soluble |
